One test addresses T1, MEKK4 (Mus musculus, UniProt O08648).
T1 construct: plasmids encoding full-length (FL) human ASK1, MEKK4, JNKK1, and JNKK2; made in house; host or cells: TNT coupled reticulocyte lysate (Promega), in vitro transcription/translation from pBS
Nature of the test: GST pull-down, GST-Gadd45β beads with in vitro translated 35S-labeled MEKK4. It counts as binding, murine. The protocol: (§1) To confirm the above interactions, in vitro, GST pull-down experiments were performed. pBluescript (pBS) plasmids encoding full-length (FL) human ASK1, MEKK4, JNKK1, and JNKK2, or polypeptides derived from the amino- or carboxy-terminal portions of ASK1 (i.e. N-ASK1, spanning from amino acids 1 to 756, and C-ASK1, spanning from amino acids 648 to 1375) were transcribed and translated in vitro using the TNT coupled retyculocyte lysate system (Promega) in the presence of ^35S-methionine. 5 μl of each translation mix were incubated, in vitro, with sepharose-4B beads that had been coated with either purified glutathione-S-transferase (GST) polypeptides or GST-Gadd45β proteins. The latter proteins contained FL murine Gadd45β directly fused to GST. Binding assays were performed according to standard procedures, and ^35S-labeled proteins that bound to beads, as well as 2 μl of each in vitro translation mix (input), were then resolved by SDS polyacrylamide gel electrophoresis. Asterisks indicate the intact translated products. […] Thus, GST pull-down experiments confirmed the strong interaction between Gadd45β and JNKK2 observed in vivo, as well as the weaker interactions of Gadd45β with other kinases in the JNK pathway. These assays also uncovered a weak association between Gadd45β and JNKK1. […]

Another test has as its target T2, JNKK1 (Mus musculus, UniProt P47809).
T2 construct: plasmids encoding full-length (FL) human ASK1, MEKK4, JNKK1, and JNKK2; made in house; host or cells: TNT coupled reticulocyte lysate (Promega), in vitro transcription/translation from pBS
T2 sequence (P47809 2-397): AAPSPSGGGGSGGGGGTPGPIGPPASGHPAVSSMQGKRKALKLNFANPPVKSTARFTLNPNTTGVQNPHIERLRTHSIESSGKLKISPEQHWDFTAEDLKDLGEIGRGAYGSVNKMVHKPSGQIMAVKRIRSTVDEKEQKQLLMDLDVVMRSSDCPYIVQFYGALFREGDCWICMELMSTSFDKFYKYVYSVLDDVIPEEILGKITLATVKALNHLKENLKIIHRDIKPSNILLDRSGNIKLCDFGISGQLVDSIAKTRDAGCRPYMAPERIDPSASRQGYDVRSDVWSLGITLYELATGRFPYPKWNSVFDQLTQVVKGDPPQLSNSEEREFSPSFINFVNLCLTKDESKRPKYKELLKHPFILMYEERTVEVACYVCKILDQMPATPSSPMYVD
Nature of the test: GST pull-down, GST-Gadd45β beads with in vitro translated 35S-labeled JNKK1. It counts as binding, murine. As to the method: as §1

The results in this text go back to patent US7326418B2, “Identification of novel factors that block programmed cell death or apoptosis by targeting JNK” (University of Chicago, priority 2001, dated 2008).

T1 sequence (O08648 whole entry): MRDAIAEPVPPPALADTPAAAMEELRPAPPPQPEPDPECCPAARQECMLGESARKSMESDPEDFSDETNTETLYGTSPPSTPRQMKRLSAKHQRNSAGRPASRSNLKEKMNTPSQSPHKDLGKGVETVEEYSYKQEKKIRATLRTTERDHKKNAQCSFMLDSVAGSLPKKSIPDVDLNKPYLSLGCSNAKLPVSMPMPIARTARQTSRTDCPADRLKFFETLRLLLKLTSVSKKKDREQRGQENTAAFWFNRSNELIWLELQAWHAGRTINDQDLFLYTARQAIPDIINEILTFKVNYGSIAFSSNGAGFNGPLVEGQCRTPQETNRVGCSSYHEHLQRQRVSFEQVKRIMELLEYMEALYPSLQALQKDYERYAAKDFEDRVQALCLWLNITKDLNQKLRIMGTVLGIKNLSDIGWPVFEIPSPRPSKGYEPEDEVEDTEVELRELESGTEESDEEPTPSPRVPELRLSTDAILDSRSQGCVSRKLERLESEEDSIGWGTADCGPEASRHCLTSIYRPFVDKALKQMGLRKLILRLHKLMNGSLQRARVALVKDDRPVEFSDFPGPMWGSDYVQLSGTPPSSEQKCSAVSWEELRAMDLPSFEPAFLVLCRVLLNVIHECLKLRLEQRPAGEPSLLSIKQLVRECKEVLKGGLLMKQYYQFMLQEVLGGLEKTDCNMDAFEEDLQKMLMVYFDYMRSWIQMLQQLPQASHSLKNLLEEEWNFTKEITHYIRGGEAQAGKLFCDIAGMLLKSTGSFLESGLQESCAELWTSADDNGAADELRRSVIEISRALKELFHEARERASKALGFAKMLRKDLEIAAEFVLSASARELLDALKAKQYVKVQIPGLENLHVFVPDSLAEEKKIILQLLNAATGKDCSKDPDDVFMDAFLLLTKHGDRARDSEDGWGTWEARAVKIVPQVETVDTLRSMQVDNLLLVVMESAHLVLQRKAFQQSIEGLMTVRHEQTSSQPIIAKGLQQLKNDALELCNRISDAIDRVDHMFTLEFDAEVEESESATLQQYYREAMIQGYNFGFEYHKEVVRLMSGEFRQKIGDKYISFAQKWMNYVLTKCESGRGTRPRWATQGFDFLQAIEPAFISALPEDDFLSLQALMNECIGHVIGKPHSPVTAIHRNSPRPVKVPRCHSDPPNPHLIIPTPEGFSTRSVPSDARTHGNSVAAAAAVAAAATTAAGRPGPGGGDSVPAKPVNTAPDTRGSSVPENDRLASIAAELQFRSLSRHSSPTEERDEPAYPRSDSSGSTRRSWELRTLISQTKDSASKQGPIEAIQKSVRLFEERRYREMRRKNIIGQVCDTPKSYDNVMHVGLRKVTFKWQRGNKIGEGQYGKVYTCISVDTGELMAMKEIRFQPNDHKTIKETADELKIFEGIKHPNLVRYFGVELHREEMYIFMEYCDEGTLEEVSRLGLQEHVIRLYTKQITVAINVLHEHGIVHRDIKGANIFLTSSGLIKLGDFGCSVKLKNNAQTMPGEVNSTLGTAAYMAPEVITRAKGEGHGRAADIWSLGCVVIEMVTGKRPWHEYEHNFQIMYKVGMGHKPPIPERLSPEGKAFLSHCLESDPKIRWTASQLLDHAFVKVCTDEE

B1: GST-Gadd45β: full-length murine Gadd45β directly fused to GST, purified from E. coli (protein)
chain: MTLEELVASDNAVQKMQAVTAAVEQLLVAAQRQDRLTVGVYEAAKLMNVDPDSVVLCLLAIDEEEEDDIALQIHFTLIQSFCCDNDIDIVRVSGMQRLAQLLGEPAETLGTTEARDLHCLLVTNCHTDSWKSQGLVEVASYCEESRGNNQWVPYISLEER
modifications: left off: a dimerising Fc or GST
notes: full-length murine Gadd45β directly fused to GST, purified from E. coli
As for B1, the “association with MEKK4” value with MEKK4 is “less avidly than with JNKK2”. Moreover, the “association with JNKK1” value with JNKK1 is “weakly”.
